B1: PGZL1.H4K3 IgG (antibody, V domains shown)
VH: KVQLVQSGAELKKPWSSVRVSCKASGGSFSSYAFNWVRQAPGQRLEWLGGIVPLVSSTNYAQRFRGRVTISADRSTSTVYLEMTGLTSADTAVYFCAREGEGWFGRPLRAFEFWGQGTLVTVST
VL: EIVLTQSPGTFALSPGERATLSCRASQSVSGGALAWYQQKAGQAPRLLIYGTSGRATGVPGRFSGSGSETDFSLTISRLEPEDFAVYYCQQYGTSQSTFGQGTRLETR
B2: H4K3_RS73PE IgG (antibody, V domains shown)
VH: KVQLVQSGAELKKPWSSVRVSCKASGGSFSSYAFNWVRQAPGQRLEWLGGIVPLVSSTNYAQRFRGRVTISADPETSTVYLEMTGLTSADTAVYFCAREGEGWFGRPLRAFEFWGQGTLVTVST
VL: EIVLTQSPGTFALSPGERATLSCRASQSVSGGALAWYQQKAGQAPRLLIYDTSGRATGVPGRFSGSGSETDFSLTISRLEPEDFAVYYCQQYGTSQSTFGQGTRLETR
B3: H4K3_5M IgG (antibody, V domains shown)
VH: KVQLVQSGAELKKPWSSVRVSCKASGGEPESYAFNWVRQAPGQRLEWLGGIVPLVSSTNYAQRFRGRVTISADPETSTVYLEMTGLTSADTAVYFCAREGEGWFGRPLRAFEFWGQGTLVTVST
VL: EIVLTQSPGTFALSPGERATLSCRASQSVSGGALAWYQQKAGQAPRLLIYDTSGRATGVPGRFSGSGSETDFSLTISRLEPEDFAVYYCQQYGTSQSTFGQGTRLETR
B4: H4K3_SFS28EPE Fab (Fab, V domains shown)
VH: KVQLVQSGAELKKPWSSVRVSCKASGGEPESYAFNWVRQAPGQRLEWLGGIVPLVSSTNYAQRFRGRVTISADRSTSTVYLEMTGLTSADTAVYFCAREGEGWFGRPLRAFEFWGQGTLVTVST
VL: EIVLTQSPGTFALSPGERATLSCRASQSVSGGALAWYQQKAGQAPRLLIYDTSGRATGVPGRFSGSGSETDFSLTISRLEPEDFAVYYCQQYGTSQSTFGQGTRLETR
B5: H4K3_RS73PE Fab (Fab, V domains shown)
VH: KVQLVQSGAELKKPWSSVRVSCKASGGSFSSYAFNWVRQAPGQRLEWLGGIVPLVSSTNYAQRFRGRVTISADPETSTVYLEMTGLTSADTAVYFCAREGEGWFGRPLRAFEFWGQGTLVTVST
VL: EIVLTQSPGTFALSPGERATLSCRASQSVSGGALAWYQQKAGQAPRLLIYDTSGRATGVPGRFSGSGSETDFSLTISRLEPEDFAVYYCQQYGTSQSTFGQGTRLETR
B6: H4K3_5M Fab (Fab, V domains shown)
VH: KVQLVQSGAELKKPWSSVRVSCKASGGEPESYAFNWVRQAPGQRLEWLGGIVPLVSSTNYAQRFRGRVTISADPETSTVYLEMTGLTSADTAVYFCAREGEGWFGRPLRAFEFWGQGTLVTVST
VL: EIVLTQSPGTFALSPGERATLSCRASQSVSGGALAWYQQKAGQAPRLLIYDTSGRATGVPGRFSGSGSETDFSLTISRLEPEDFAVYYCQQYGTSQSTFGQGTRLETR
B7: H4K3_SFS28EPE IgG (antibody, V domains shown)
VH: KVQLVQSGAELKKPWSSVRVSCKASGGEPESYAFNWVRQAPGQRLEWLGGIVPLVSSTNYAQRFRGRVTISADRSTSTVYLEMTGLTSADTAVYFCAREGEGWFGRPLRAFEFWGQGTLVTVST
VL: EIVLTQSPGTFALSPGERATLSCRASQSVSGGALAWYQQKAGQAPRLLIYDTSGRATGVPGRFSGSGSETDFSLTISRLEPEDFAVYYCQQYGTSQSTFGQGTRLETR

Tests used:
[1] = target: T1, MPER peptide PDT-081 (HIV-1, biotin at the C-terminus); experiment: ELISA
T1 chain: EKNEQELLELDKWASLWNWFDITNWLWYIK

[2] = target: T1, MPER peptide PDT-081; experiment: BLI

Binder	EC50 [1]	koff [2]
B1	0.039 µg/mL	–
B2	0.09 µg/mL	–
B3	0.083 µg/mL	–
B4	–	0.00054 s⁻¹
B5	–	0.00051 s⁻¹
B6	–	0.00067 s⁻¹
B7	0.076 µg/mL	–

— PMC6879610 (2019)
